Assay results from patent US6455025B1, “Polysaccharide-peptide derivatives” (Map Medical Technologies Oy, priority 1996, dated 2002).

How the values were obtained:
[1] = tested on: tumours and other background tissues; assay: Gamma-recording after technetium-99m labelled dextran derivative: accumulation into tumours and background tissues; conditions: patient, 20 mCi technetium-99m labelled dextran derivative
Experimental: The Effect of Different Dextran Conjugates on the Tumour Accumulation and Background-activity
After the administration of 20 mCi of technetium-99 m, labelled dextran derivative to the patient a gamma-recording was carried out on the patient. From the image, the accumulation of the labelled compound into the tumours and to the other background tissues was evaluated. The compounds of the state of the art were prepared as described in the publication Holmberg et al., Antibody Immunoconj. Radiopharm 7: 253-257, 1994.

[2] = Holmberg et al. 1994; cited from earlier work

Substance	Background (accumulation of the labelled compound into other background tissues) [1]	Tumour (accumulation of the labelled compound into the tumours) [1]	half-life in blood T(1)½ [2]	half-life in blood T(2)½ [2]
Dextran 10 000 somatostatin-^99mTc: State of the art conjugate prepared as in Holmberg et al. 1994; dextran 10 000 somatostatin labelled with technetium-99m	+++	+	4 h	8 h
Dextran 10 000 somatostatin-taurine-^99mTc: Technetium-99m labelled dextran 10 000 somatostatin taurine conjugate, listed under The Invention	++	+	–	–
Dextran 40 000 somatostatin ^99mTc: State of the art dextran 40 000 somatostatin conjugate labelled with technetium-99m, without taurine	++	++	–	–
Dextran 40 000 somatostatin-taurine ^99mTc: Dextran 40 000-somatostatin-taurine labelled with technetium-99m using SnCl and sodium pertechnetate	+	–	–	–
